From patent US20210032351A1 (XDCEXPLORER SHANGHAI, published 2021)
Values joined by “and” are separate entries in the source; they are usually repeats but may differ in a detail not shown here. Equal values may be shown once. Read-outs that look alike come from different tables or passages of the source. Ends that are not written are not given here. * marks the point of attachment. Biotin = O=C1N[C@H]2[C@H](CS[C@H]2CCCCC(=O)*)N1

Key:
[1] = target: T1, pep05 (cysteine pairing not given here); test: peptide dot matrix ELISA
T1 peptide: KGNYVVTDHGSCVRACK(Biotin)

[2] = target: T2, pep06 (cysteine pairing not given here); test: peptide dot matrix ELISA
T2 peptide: GNYVVTDHGSCVRACGK(Biotin)

[3] = target: T3, pep07 (cysteine pairing not given here); test: peptide dot matrix ELISA
T3 peptide: NYVVTDHGSCVRACGAK(Biotin)

[4] = target: T4, pep13 (cysteine pairing not given here); test: peptide dot matrix ELISA
T4 peptide: HGSCVRACGADSYEMEK(Biotin)

[5] = target: T5, pep14 (cysteine pairing not given here); test: peptide dot matrix ELISA
T5 peptide: GSCVRACGADSYEMEEK(Biotin)

[6] = target: T6, pep15 (cysteine pairing not given here); test: peptide dot matrix ELISA
T6 peptide: SCVRACGADSYEMEEDK(Biotin)

[7] = target: T7, pep20 (cysteine pairing not given here); test: peptide dot matrix ELISA
T7 peptide: CGADSYEMEEDGVRKCK(Biotin)

[8] = target: T8, pep21; test: peptide dot matrix ELISA
T8 peptide: GADSYEMEEDGVRKCKK(Biotin)

[9] = target: T9, pep04; test: peptide dot matrix ELISA
T9 sequence (peptide, C-terminal K(Biotin)): KKGNYVVTDHGSCVRAK

[10] = target: T10, pep19; test: peptide dot matrix ELISA
T10 sequence (peptide, C-terminal K(Biotin)): ACGADSYEMEEDGVRKK

[11] = target: human wild-type EGFR protein on the cell surface (human) (UniProt P00533); test: FACS on CHOk1-EGFR cells
[12] = target: human wild-type EGFR protein on the cell surface (human) (UniProt P00533); test: FACS on A431 tumor cells
[13] = target: human EGFRvIII-hFc protein (human) (UniProt P00533); test: ELISA, EGFRvIII-hFc coated
[14] = target: human EGFRvIII-hFc protein (human) (UniProt P00533); test: ELISA, EGFRvIII-hFc coated; remark: listed apart in the source
[15] = target: human EGFRvIII protein on the cell surface (human) (UniProt P00533); test: FACS on CHOk1-EGFRvIII cells
[16] = target: human EGFRvIII protein on the cell surface (human) (UniProt P00533); test: FACS on U87MG-EGFRvIII cells
[17] = target: human wild-type EGFR protein on the cell surface (human) (UniProt P00533); test: FACS on normal human primary hepatocytes
[18] = target: T11, human EGFR protein (wild-type), on cells (human, UniProt P00533 25-1210); test: FACS on CHOK-EGFR cells
T11 construct: whole, on cells; transfected on CHO-K1 cells; endogenous on the human cell lines; the cell is named under assay; also called wild-type EGFR; hEGFR

[19] = target: T12, human EGFRvIII-hFc protein (human, UniProt P00533 25-645); test: ELISA, coated EGFRvIII-hFc
T12 construct: extracellular domain; made in HEK293 cells, purified on protein A; also called immunogen A; hFc-tagged EGFRvIII protein; not shown: human IgG Fc fragment (hFc) of the pCpC vector
Experimental: The plate is incubated for 2 hours at 37° C., and then washed 3 times with the plate washing solution [PBS+0.01% (v/v) Tween20]. The plate is added with an HRP (horseradish peroxidase) labeled secondary antibody (purchased from Sigma), incubated at 37° C. for 2 hours, and then washed 3 times with the plate washing solution [PBS+0.01% (v/v) Tween20]. The plate is added with 100 μl of TMB substrate/well, incubated for 30 minutes at room temperature, and then added with 100 μl of stopping solution (1.0N HCl)/well. A450 nm value is read using an ELISA plate reader (SpectraMax 384plus, purchased from Molecular Device), and the results are shown in FIG. 11 and table 19.

[20] = target: T13, human EGFRvIII protein, full length, on transfected cells (human, UniProt P00533 25-1210); test: FACS on CHOK-EGFRvIII cells
T13 construct: whole, on cells; stably transfected CHO-K1, U87MG and HEK293(F) cells; also called hEGFRvIII; mutant EGFRvIII protein

[21] = target: T13, human EGFRvIII protein, full length, on …; test: FACS on U87MG-EGFRvIII cells, Alexa 488 secondary antibody, mean fluorescence intensity
Experimental: The preparation of U87MG-EGFRvIII required for FACS detection is as described in the preparation of the immunogen B in example 1. Normal human primary hepatocytes are purchased from BioreclamationIVT, and A431 tumor cells are purchased from ATCC. […] The cells are washed twice with the HBSS buffer and are counted, and then the cells are diluted with the HBSS buffer to 2×10⁶ cells/ml, added with 1% goat serum blocking solution, with the percentage being the mass percentage, and incubated on ice for 30 minutes, and then centrifugally washed twice with the HBSS buffer. […] The plate is centrifugally washed twice with the FACS buffer, added with 100 μL/well of a 1:1000 diluted fluorescence (Alexa 488) labeled secondary antibody (purchased from Invitrogen), and incubated on ice for 1 hour. […] The cells are resuspended in 100 μL of the FACS buffer, and the results are detected and analyzed by FACS (FACS Calibur, purchased from BD). Data analysis is performed by using the software (CellQuest) to obtain the mean fluorescence intensity (MFI) of the cells. Data is further analyzed by using the software (GraphPad Prism5) to perform data fitting and calculate EC50.

[22] = target: T12, human EGFRvIII-hFc protein; test: ELISA, plate coated with human EGFRvIII-hFc, HRP secondary antibody, absorbance at 450 nm
Experimental: The purified immunogen A (EGFRvIII-hFc) obtained in example 1 (for the preparation method, see step (I) in example 1) is diluted with PBS to a final concentration of 1.0 μg/mL, and then added to a 96-well ELISA plate at 100 μl/well. The plate is sealed with a plastic film and incubated at 4° C. overnight. The next day, the plate is washed twice with a plate washing solution [PBS+0.01% (v/v) Tween20], and added with a blocking solution [PBS+0.01% (v/v) Tween20+1% (w/w) BSA] for blocking 2 hours at room temperature. […] The plate is incubated for 2 hours at 37° C., and then washed 3 times with the plate washing solution [PBS+0.01% (v/v) Tween20]. The plate is added with an HRP (horseradish peroxidase) labeled secondary antibody (purchased from Sigma), incubated at 37° C. for 2 hours, and then washed 3 times with the plate washing solution [PBS+0.01% (v/v) Tween20]. The plate is added with 100 μl of TMB substrate/well, incubated for 30 minutes at room temperature, and then added with 100 μl of stopping solution (1.0N HCl)/well. A450 nm value is read using an ELISA plate reader (SpectraMax 384plus, purchased from Molecular Device), and the results are shown in FIG. 11 and table 19.

[23] = target: T14, pep01; test: peptide dot matrix ELISA
T14 peptide: LEEKKGNYVVTDHGSCK(Biotin)

[24] = target: T15, pep04; test: peptide dot matrix ELISA
T15 peptide: KKGNYVVTDHGSCVRAK(Biotin)

[25] = target: T16, pep08 (cysteine pairing not given here); test: peptide dot matrix ELISA
T16 peptide: YVVTDHGSCVRACGADK(Biotin)

[26] = target: T17, pep09 (cysteine pairing not given here); test: peptide dot matrix ELISA
T17 peptide: VVTDHGSCVRACGADSK(Biotin)

[27] = target: T18, pep10 (cysteine pairing not given here); test: peptide dot matrix ELISA
T18 peptide: VTDHGSCVRACGADSYK(Biotin)

[28] = target: T19, pep11 (cysteine pairing not given here); test: peptide dot matrix ELISA
T19 peptide: TDHGSCVRACGADSYEK(Biotin)

[29] = target: T20, pep16 (cysteine pairing not given here); test: peptide dot matrix ELISA
T20 peptide: CVRACGADSYEMEEDGK(Biotin)

[30] = target: T21, pep17; test: peptide dot matrix ELISA
T21 peptide: VRACGADSYEMEEDGVK(Biotin)

[31] = target: T22, pep18; test: peptide dot matrix ELISA
T22 peptide: RACGADSYEMEEDGVRK(Biotin)

[32] = target: T23, pep25 (cysteine pairing not given here); test: peptide dot matrix ELISA
T23 peptide: YEMEEDGVRKCKKCEGK(Biotin)

[33] = target: T24, pep26 (cysteine pairing not given here); test: peptide dot matrix ELISA
T24 peptide: EMEEDGVRKCKKCEGPK(Biotin)

[34] = target: T25, pep28 (cysteine pairing not given here); test: peptide dot matrix ELISA
T25 peptide: EEDGVRKCKKCEGPCRK(Biotin)

[35] = target: T26, pep30 (cysteine pairing not given here); test: peptide dot matrix ELISA
T26 peptide: DGVRKCKKCEGPCRKVK(Biotin)

[36] = target: T27, pep31 (cysteine pairing not given here); test: peptide dot matrix ELISA
T27 peptide: GVRKCKKCEGPCRKVCK(Biotin)

[37] = target: T28, pep33 (cysteine pairing not given here); test: peptide dot matrix ELISA
T28 peptide: RKCKKCEGPCRKVCNGK(Biotin)

[38] = target: T29, pep34 (cysteine pairing not given here); test: peptide dot matrix ELISA
T29 peptide: KCKKCEGPCRKVCNGIK(Biotin)

[39] = target: T30, pep35 (cysteine pairing not given here); test: peptide dot matrix ELISA
T30 peptide: CKKCEGPCRKVCNGIGK(Biotin)

Which ELISA signal [1] does the source give for hIgG (antibody) here?
Its ELISA signal is 0.05 and 0.06.

And the ELISA signal [2]?
Its ELISA signal is 0.07 and 0.05.

And the ELISA signal [3]?
The ELISA signal was 0.05.

What about the ELISA signal [4] of the same molecule?
Its ELISA signal is 0.06.

What about the ELISA signal [5] of the same molecule?
Its ELISA signal is 0.07.

What about the ELISA signal [6] of the same molecule?
The ELISA signal was 0.05 and 0.06.

What about the ELISA signal [7] of the same molecule?
Its ELISA signal is 0.12 and 0.1.

What about the ELISA signal [8] of the same molecule?
Its ELISA signal is 0.06.

What about the ELISA signal [9] of the same molecule?
The ELISA signal was 0.05 and 0.06.

And the ELISA signal [10]?
Its ELISA signal is 0.05.

And the Maximum mean fluorescence intensity [11]?
The Maximum mean fluorescence intensity was 144 MFI.

What about the MFI [12] of the same molecule?
Its MFI is 388 MFI.

And the Maximum OD450 value [13]?
The Maximum OD450 value was 0.17 OD450.

What about the Maximum OD450 value [14] of the same molecule?
The Maximum OD450 value was 0.1 OD450.

What about the Maximum mean fluorescence intensity [15] of the same molecule?
The Maximum mean fluorescence intensity was 133 MFI.

And the Maximum mean fluorescence intensity [16]?
Its Maximum mean fluorescence intensity is 0 MFI.

What about the MFI [17] of the same molecule?
The MFI was 219 MFI.

B1: c75G7C6-3 (antibody, human IgG1, V domains shown)
VH: EVQLQQSGPELVKPGASVKIPCKASGYTFTDYNMDWVKQSHGKSLEWIGDINPNNGDTIYNQKFKGKATLTVDKSSSTAYMELRSLTSEDTAVYYCARGDYEGYYPVYYAMDYWGQGTSVTVSS
VL: ENVLTQSPAIMSASPGEKVTMTCRASSSVSSSYLHWYQQKSGASPKLWIFSTSNLAAGVPARFSGSGSGTSYSLTVSSVEAEDAATYYCQQYSGYPLTFGAGTKLELK
notes: chimeric, human IgG1 / kappa; DG of heavy chain CDR3 mutated to EG; also called DG/EG mutant
How did the “fold decrease in binding ability compared to the wild-type chimeric antibody c75G7C6” value (“fold decrease in binding ability” for short) [18] turn out when B1 was run?
The value was 3 fold.

And the “fold decrease in binding ability” value [19]?
The value was 22 fold.

What about the “fold decrease in binding ability” value [20] of the same molecule?
The value was 2.5 fold.

B2: Chimeric antibody 63A10 (antibody, human IgG1, V domains shown)
VH: QVQLQQSGAELARPGASVKMSCKASGYTFISFTMHWVKQRPGQGLEWIGYINPNSGYTKYNQKFKDKATLTAGQSSSTAYMQLSSLTSEDSAVYYCTRGGGRGFAYWGQGTLVTVSA
VL: DILMTQSPSSMSVSLGDTVTITCHASQDINSNIGWLQQKPGKSFKALIYHGTNLEDGVPSRFSGSGSGADYSLTISSLESEDFADYYCVQYAQFPFTFGSGTKLEIK
notes: also called c63A10A7
For B2, which “EC50 (read off the curve)” value [21] is on record?
Its value is about 2 nM.

And the “EC50 (read off the curve)” value [22]?
The value was about 0.03 nM.

B3: Chimeric antibody 63A10 (antibody, V domains shown)
VH: QVQLQQSGAELARPGASVKMSCKASGYTFISFTMHWVKQRPGQGLEWIGYINPNSGYTKYNQKFKDKATLTAGQSSSTAYMQLSSLTSEDSAVYYCTRGGGRGFAYWGQGTLVTVSA
VL: DILMTQSPSSMSVSLGDTVTITCHASQDINSNIGWLQQKPGKSFKALIYHGTNLEDGVPSRFSGSGSGADYSLTISSLESEDFADYYCVQYAQFPFTFGSGTKLEIK
notes: also called c63A10A7
With B3 as the molecule, how does the ELISA signal [23] read?
Its ELISA signal is 0.05.

What about the ELISA signal [24] of the same molecule?
Its ELISA signal is 0.06.

And the ELISA signal [25]?
Its ELISA signal is 0.05.

What about the ELISA signal [26] of the same molecule?
The ELISA signal was 0.05.

What about the ELISA signal [27] of the same molecule?
Its ELISA signal is 0.05.

And the ELISA signal [28]?
Its ELISA signal is 0.05.

And the ELISA signal [29]?
The ELISA signal was 0.05.

What about the ELISA signal [30] of the same molecule?
The ELISA signal was 0.05.

What about the ELISA signal [31] of the same molecule?
The ELISA signal was 0.05.

What about the ELISA signal [32] of the same molecule?
The ELISA signal was 0.06.

What about the ELISA signal [33] of the same molecule?
The ELISA signal was 0.33.

What about the ELISA signal [34] of the same molecule?
The ELISA signal was 0.06.

What about the ELISA signal [35] of the same molecule?
The ELISA signal was 0.06.

And the ELISA signal [36]?
Its ELISA signal is 0.06.

And the ELISA signal [37]?
Its ELISA signal is 0.07.

And the ELISA signal [38]?
The ELISA signal was 0.07.

What about the ELISA signal [39] of the same molecule?
Its ELISA signal is 0.07.
